The values that follow are results of earlier work, collected in article PMC3432176.

The data set concerns the target preMADH (Paracoccus denitrificans) (UniProt P22619). In words: kinetics.
UniProt P22619, sequence (P22619 58-188, chain 1 of 2): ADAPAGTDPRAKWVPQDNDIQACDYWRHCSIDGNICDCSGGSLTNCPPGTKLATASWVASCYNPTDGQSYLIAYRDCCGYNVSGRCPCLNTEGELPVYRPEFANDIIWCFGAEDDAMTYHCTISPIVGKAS
UniProt P22619, sequence (P29894 29-417, chain 2 of 2, further chain): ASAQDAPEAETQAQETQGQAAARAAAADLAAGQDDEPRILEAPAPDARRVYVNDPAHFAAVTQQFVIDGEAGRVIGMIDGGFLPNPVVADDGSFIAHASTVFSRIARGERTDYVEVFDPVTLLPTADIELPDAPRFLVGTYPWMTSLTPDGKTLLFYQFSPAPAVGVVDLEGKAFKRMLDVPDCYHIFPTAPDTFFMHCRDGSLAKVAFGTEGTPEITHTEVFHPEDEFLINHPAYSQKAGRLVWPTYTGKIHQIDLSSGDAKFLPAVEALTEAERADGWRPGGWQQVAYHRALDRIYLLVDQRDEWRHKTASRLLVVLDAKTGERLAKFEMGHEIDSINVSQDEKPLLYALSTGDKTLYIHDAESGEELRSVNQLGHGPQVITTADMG

Broadly, the Kd is a measure of binding affinity in units of concentration. As to MauG (from UniProt Q51658), the Kd was less than 1500 nM.
